We go through ten molecules from US20160207995A1 (Genentech, published 2016).

Assay [1] concerns the target T1, human interleukin-4 (IL-4) (human, UniProt P05112 25-153, biotinylated in the competition ELISAs).
T1 construct: Commercial human IL-4 (R&D Systems); also called human IL-4; biotinylated IL-4
T1 sequence: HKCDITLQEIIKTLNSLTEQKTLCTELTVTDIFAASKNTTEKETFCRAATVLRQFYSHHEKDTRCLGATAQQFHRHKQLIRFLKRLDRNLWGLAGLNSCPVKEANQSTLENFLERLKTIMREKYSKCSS
Description: SPR (BIAcore A100): IgG captured by anti-human Fcγ antibody, recombinant IL-4 injected, 1:1 Langmuir fit. On the technique in general: In SPR one partner is held on a chip, and binding of the other changes the refractive index at the surface.

In assay [2] the target is T1, human interleukin-4 (IL-4). Description: SPR BIAcore A100; IgG captured on anti-human Fcγ, recombinant IL-4 injected, 1:1 model.
Assay [3] has as its target T1, human interleukin-4 (IL-4). Nature of the assay: SPR.
In assay [4] the target is T1, human interleukin-4 (IL-4). Nature of the assay: cell-based or functional assay.
Assay [5] deals with T2, human IL-13 (human, UniProt P35225 33-146, biotinylated in the IL-13Rα2 competition ELISA). Nature of the assay: cell-based or functional assay.
Assay [6] addresses T1, human interleukin-4 (IL-4). Nature of the assay: cell-based or functional assay. This is another data set of the same source.
In assay [7] the target is T2, human IL-13. Description: SPR Biacore 3000; antibody captured on anti-human Fc, cytokine 0-50 nM injected, 25 °C, 1:1 Langmuir model.
In assay [8] the target is T1, human interleukin-4 (IL-4). The assay is described as above.
Assay [9] concerns the target T1, human interleukin-4 (IL-4). Nature of the assay: competition ELISA: antibody premixed with biotinylated human IL-4 (5.8 ng/ml), then added to plate-coated human IL-4R; streptavidin-HRP, OD 450 nm. A general note: ELISA stands for enzyme-linked immunosorbent assay.
The target in assay [10] is T2, human IL-13. Description: competition ELISA: antibody premixed with biotinylated human IL-13 (0.056 µg/ml), then added to plate-coated human IL-13Rα2-Fc; streptavidin-HRP, OD 450 nm.
The next assay has as its target T3, human IL-13 R130Q (human, UniProt P35225 25-146, biotinylated in the IL-13Rα1 competition ELISA).
T3 construct: also called biotinylated IL-13 R130Q
Description: SPR Biacore 3000; antibody captured on anti-human Fc, cytokine 0-50 nM injected, 25 °C, 1:1 Langmuir model.

The next assay has as its target T4, cynomolgus monkey IL-4 (cynomolgus monkey, UniProt P79339 25-153).
T4 construct: Made at Genentech; also called cyno IL-4
T4 sequence: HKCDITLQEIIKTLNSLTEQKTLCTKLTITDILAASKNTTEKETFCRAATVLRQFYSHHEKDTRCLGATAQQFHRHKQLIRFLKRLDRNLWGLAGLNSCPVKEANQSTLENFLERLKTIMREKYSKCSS
The description is as above.

The target of the next assay is T5, cynomolgus monkey IL-13 (cynomolgus monkey, UniProt Q5I6E4 19-132 (Macaca thibetana entry), limits assumed).
T5 construct: also called cyno IL-13
T5 chain: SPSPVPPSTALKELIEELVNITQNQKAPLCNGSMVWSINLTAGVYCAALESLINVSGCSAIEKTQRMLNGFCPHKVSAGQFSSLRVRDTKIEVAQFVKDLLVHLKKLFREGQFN
The assay is described as above.

The term Kd denotes the concentration at which binding is half-saturated. A word on the koff: it is a measure of how fast the partners let go of each other. One may read the kon as a measure of how fast the partners come together.

B1: HuVHIII / HuKIII (antibody, V domains shown)
VH: EVQLVESGGGLVQPGGSLRLSCAASGYTFTDYSMHWVRQAPGKGLEWVVWINTETGEPTYADDFKGRFTISRDNSKNTLYLQMNSLRAEDTAVYYCARGGIFYGMDYWGQGTLVTVSS
VL: EIVLTQSPATLSLSPGERATLSCKASQSVINDAAWYQQKPGQAPRLLIYYTSHRYTGIPARFSGSGSGTDFTLTISSLEPEDFAVYYCQQDYTSPWTFGQGTKVEIKR
notes: also called humanized 19C11-VH3 graft/κ3 graft
Take B1: in assay [1], the dissociation constant (Kd) was 0.026 nM.

B2: humanized 19C11-VH3.FLA/κ3 graft (antibody, V domains shown)
VH: EVQLVESGGGLVQPGGSLRLSCAASGYTFTDYSMHWVRQAPGKGLEWVVWINTETGEPTYADDFKGRFTFSLDNSKNTAYLQMNSLRAEDTAVYYCARGGIFYGMDYWGQGTLVTVSS
VL: EIVLTQSPATLSLSPGERATLSCKASQSVINDAAWYQQKPGQAPRLLIYYTSHRYTGIPARFSGSGSGTDFTLTISSLEPEDFAVYYCQQDYTSPWTFGQGTKVEIKR
notes: Human IgG expressed in 293 cells; also called 19C11-VH3.FLA with 19C11-κ3 graft
On to B2, for which, in assay [2], the Kd came out at 0.011 nM.

B3: HuVHI / HuKI (antibody, V domains shown)
VH: QVQLVQSGAEVKKPGASVKVSCKASGYTFTDYSMHWVRQAPGQGLEWMVWINTETGEPTYADDFKGRVTITRDTSTSTAYLELSSLRSEDTAVYYCARGGIFYGMDYWGQGTLVTVSS
VL: DIQMTQSPSSLSASVGDRVTITCKASQSVINDAAWYQQKPGKAPKLLIYYTSHRYTGVPSRFSGSGSGTDFTLTISSLQPEDFATYYCQQDYTSPWTFGQGTKVEIKR
notes: also called humanized 19C11-VH1 graft/κ1 graft
As to B3, the equilibrium dissociation constant (Kd) in assay [1] is 0.024 nM.

B4: HuVHIII / HuKI (antibody, V domains shown)
VH: EVQLVESGGGLVQPGGSLRLSCAASGYTFTDYSMHWVRQAPGKGLEWVVWINTETGEPTYADDFKGRFTISRDNSKNTLYLQMNSLRAEDTAVYYCARGGIFYGMDYWGQGTLVTVSS
VL: DIQMTQSPSSLSASVGDRVTITCKASQSVINDAAWYQQKPGKAPKLLIYYTSHRYTGVPSRFSGSGSGTDFTLTISSLQPEDFATYYCQQDYTSPWTFGQGTKVEIKR
notes: also called humanized 19C11-VH3 graft/κ1 graft
B4: in assay [1], the Kd amounted to 0.084 nM.

B5: HuVHIII (FLA) / HuKI (antibody, V domains shown)
VH: EVQLVESGGGLVQPGGSLRLSCAASGYTFTDYSMHWVRQAPGKGLEWVVWINTETGEPTYADDFKGRFTFSLDNSKNTAYLQMNSLRAEDTAVYYCARGGIFYGMDYWGQGTLVTVSS
VL: DIQMTQSPSSLSASVGDRVTITCKASQSVINDAAWYQQKPGKAPKLLIYYTSHRYTGVPSRFSGSGSGTDFTLTISSLQPEDFATYYCQQDYTSPWTFGQGTKVEIKR
notes: also called humanized 19C11-VH3.FLA/κ1 graft
Regarding B5, the Kd in [1] came out at 0.14 nM.

B6: humanized 19C11-VH1.FFL/κ3 graft (antibody, V domains shown)
VH: QVQLVQSGAEVKKPGASVKVSCKASGYTFTDYSMHWVRQAPGQGLEWMVWINTETGEPTYADDFKGRFTFTLDTSTSTAYLELSSLRSEDTAVYYCARGGIFYGMDYWGQGTLVTVSS
VL: EIVLTQSPATLSLSPGERATLSCKASQSVINDAAWYQQKPGQAPRLLIYYTSHRYTGIPARFSGSGSGTDFTLTISSLEPEDFAVYYCQQDYTSPWTFGQGTKVEIKR
notes: Human IgG expressed in 293 cells; also called 19C11-VH1.FFL with 19C11-κ3 graft
As to B6, the Kd in [2] was 0.011 nM.

B7: mu19C11 (clone 19C11, murine anti-human IL-4 monoclonal antibody) (antibody, V domains shown)
VH: QIQLVQSGPELKKPGETVKISCKASGYTFTDYSMHWMKQAPGKGLKWMVWINTETGEPTYADDFKGRFAFSLETSANTAYLKINNLKNEDTATYFCARGGIFYGMDYWGQGTSVTVSS
VL: SIVMTQTPKFLLISAGDRVTITCKASQSVINDAAWYQQKPGQSPRLLIYYTSHRYTGVPDRFTGSGYGTDFTFTISTVQAEDLAVYFCQQDYTSPWTFGGGTKLEIKR
notes: Mouse hybridoma IgG (BALB/c); Tested as hybridoma supernatant IgG or purified IgG
As to B7, the dissociation constant Kd in assay [3] is not above 0.01 nM. In [4], the “IC50 for blocking IL-4-induced proliferation of TF-1 cells” value came to 0.014 µg/mL.

B8: 19C11 Chimera (antibody, V domains shown)
VH: QIQLVQSGPELKKPGETVKISCKASGYTFTDYSMHWMKQAPGKGLKWMVWINTETGEPTYADDFKGRFAFSLETSANTAYLKINNLKNEDTATYFCARGGIFYGMDYWGQGTSVTVSS
VL: SIVMTQTPKFLLISAGDRVTITCKASQSVINDAAWYQQKPGQSPRLLIYYTSHRYTGVPDRFTGSGYGTDFTFTISTVQAEDLAVYFCQQDYTSPWTFGGGTKLEIKR
notes: also called chimeric 19C11 (mouse variable regions with human IgG constant regions)
For the molecule B8, the dissociation constant Kd in assay [1] was less than 0.01 nM.

B9: anti-IL-4/IL-13 IgG1 bispecific antibody (knobs-into-holes) (bispecific antibody)
heavy 1: not shown
light 1: DIQMTQSPSSLSASVGDRVTITCKASQSVINDAAWYQQKPGKAPKLLIYYTSHRYTGVPSRFSGSGSGTDFTLTISSLQPEDFATYYCQQDYTSPWTFGQGTKVEIKRTVAAPSVFIFPPSDEQLKSGTASVVCLLNNFYPREAKVQWKVDNALQSGNSQESVTEQDSKDSTYSLSSTLTLSKADYEKHKVYACEVTHQGLSSPVTKSFNRGEC
heavy 2: not shown
light 2: DIVLTQSPDSLSVSLGERATINCRASKSVDSYGNSFMHWYQQKPGQPPKLLIYLASNLESGVPDRFSGSGSGTDFTLTISSLQAEDVAVYYCQQNNEDPRTFGGGTKVEIKRTVAAPSVFIFPPSDEQLKSGTASVVCLLNNFYPREAKVQWKVDNALQSGNSQESVTEQDSKDSTYSLSSTLTLSKADYEKHKVYACEVTHQGLSSPVTKSFNRGEC
notes: Half antibodies made in E. coli (not glycosylated) and assembled by redox chemistry; Anti-IL-4 arm is the hole, anti-IL-13 arm the knob; also called anti-IL-4/IL-13 IgG1-isotype
For B9, the “IC50 of TF-1 proliferation inhibition assay (IL-13)” value in the assay with human IL-13 [5] was found to be 0.03 µg/mL. The “IC50 of TF-1 proliferation inhibition assay (IL-4)” value in [6] was 0.06 µg/mL. In the assay with human IL-13 [7], this molecule came in with a dissociation constant Kd of 0.023 nM, a dissociation rate constant (koff) of 1.7e-05 s⁻¹ and a kon of 714000 M⁻¹ s⁻¹. Moreover, in assay [8], the Kd is 0.068 nM, the koff stood at 8.48e-05 s⁻¹ and the kon stood at 1.34e+06 M⁻¹ s⁻¹.

B10: anti-IL-4/IL-13 IgG4 bispecific antibody (knobs-into-holes, S228P, wild-type R409) (bispecific antibody)
heavy 1: EVQLVESGGGLVQPGGSLRLSCAASGYTFTDYSMHWVRQAPGKGLEWVVWINTETGEPTYADSVKGRFTISLDNSKNTAYLQMNSLRAEDTAVYYCARGGIFYGMDYWGQGTLVTVSSASTKGPSVFPLAPCSRSTSESTAALGCLVKDYFPEPVTVSWNSGALTSGVHTFPAVLQSSGLYSLSSVVTVPSSSLGTKTYTCNVDHKPSNTKVDKRVESKYGPPCPPCPAPEFLGGPSVFLFPPKPKDTLMISRTPEVTCVVVDVSQEDPEVQFNWYVDGVEVHNAKTKPREEQFNSTYRVVSVLTVLHQDWLNGKEYKCKVSNKGLPSSIEKTISKAKGQPREPQVYTLPPSQEEMTKNQVSLSCAVKGFYPSDIAVEWESNGQPENNYKTTPPVLDSDGSFFLVSRLTVDKSRWQEGNVFSCSVMHEALHNHYTQKSLSLSLGK
light 1: DIQMTQSPSSLSASVGDRVTITCKASQSVINDAAWYQQKPGKAPKLLIYYTSHRYTGVPSRFSGSGSGTDFTLTISSLQPEDFATYYCQQDYTSPWTFGQGTKVEIKRTVAAPSVFIFPPSDEQLKSGTASVVCLLNNFYPREAKVQWKVDNALQSGNSQESVTEQDSKDSTYSLSSTLTLSKADYEKHKVYACEVTHQGLSSPVTKSFNRGEC
heavy 2: not shown
light 2: DIVLTQSPDSLSVSLGERATINCRASKSVDSYGNSFMHWYQQKPGQPPKLLIYLASNLESGVPDRFSGSGSGTDFTLTISSLQAEDVAVYYCQQNNEDPRTFGGGTKVEIKRTVAAPSVFIFPPSDEQLKSGTASVVCLLNNFYPREAKVQWKVDNALQSGNSQESVTEQDSKDSTYSLSSTLTLSKADYEKHKVYACEVTHQGLSSPVTKSFNRGEC
notes: Half antibodies made in E. coli (not glycosylated) and assembled by redox chemistry; also called anti-IL-4/IL-13 bispecific antibody; anti-IL-4/IL-13 IgG4-isotype
As to B10, the “IC50 (read off the curve)” value (in assay [9]; with human IL-13 [10]) was approximately 0.2 µg/mL in each case. Further, in the assay with human IL-13 [5], the “IC50 of TF-1 proliferation inhibition assay (IL-13)” value is 0.03 µg/mL. The “IC50 of TF-1 proliferation inhibition assay (IL-4)” value in assay [6] worked out at 0.05 µg/mL. The dissociation constant Kd was 0.142 nM with human IL-13 R130Q; 0.076 nM with cynomolgus monkey IL-4; 0.056 nM with human IL-13 [7]; 0.046 nM in assay [8]; 0.048 nM with cynomolgus monkey IL-13. Also, the koff in the assay with human IL-13 R130Q was determined as 2.62e-05 s⁻¹; with cynomolgus monkey IL-4 it was 0.000151 s⁻¹; in the assay with human IL-13 [7], 3.01e-05 s⁻¹; in [8], 0.000133 s⁻¹; with cynomolgus monkey IL-13 it was 2.83e-05 s⁻¹. The on-rate (kon) amounted to 184000 M⁻¹ s⁻¹ with human IL-13 R130Q; 2.02e+06 M⁻¹ s⁻¹ with cynomolgus monkey IL-4; 537000 M⁻¹ s⁻¹ with human IL-13 [7]; 2.87e+06 M⁻¹ s⁻¹ in assay [8]; 608000 M⁻¹ s⁻¹ with cynomolgus monkey IL-13.
